Laboratory results reported in patent publication US20040171105A1.

Target: GST fusion form of full-length human cIAP1 (human) (UniProt Q13490)
Experiment: cell-based or functional assay

GST fusion form of full-length human cIAP1 (human), sequence (Q13490 whole entry, the tested form may be a part): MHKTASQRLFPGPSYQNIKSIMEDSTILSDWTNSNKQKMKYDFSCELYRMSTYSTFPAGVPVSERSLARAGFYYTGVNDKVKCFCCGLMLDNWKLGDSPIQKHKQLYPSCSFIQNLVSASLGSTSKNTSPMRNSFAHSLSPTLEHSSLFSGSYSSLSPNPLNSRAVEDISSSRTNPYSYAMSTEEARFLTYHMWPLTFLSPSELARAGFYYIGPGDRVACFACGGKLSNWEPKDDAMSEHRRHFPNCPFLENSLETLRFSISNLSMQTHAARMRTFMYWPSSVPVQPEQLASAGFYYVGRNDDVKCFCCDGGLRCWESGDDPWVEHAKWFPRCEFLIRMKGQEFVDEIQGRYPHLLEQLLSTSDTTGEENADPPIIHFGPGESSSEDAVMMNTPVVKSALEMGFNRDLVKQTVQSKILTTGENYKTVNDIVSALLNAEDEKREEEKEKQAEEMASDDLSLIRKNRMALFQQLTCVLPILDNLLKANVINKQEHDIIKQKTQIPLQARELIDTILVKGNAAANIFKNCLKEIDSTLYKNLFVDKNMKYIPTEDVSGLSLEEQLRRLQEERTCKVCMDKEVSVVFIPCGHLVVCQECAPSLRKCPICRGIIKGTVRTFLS

Question: For “Omi SA (protease dead mutant Omi S306→Ala, C-terminal hexa-His tagged) (from UniProt O43464 134-458) (enzyme)”, which relief of cIAP1 inhibition of caspase activity in HeLa extracts is on record?
Answer: 75 nM
